Results on 1 substance are retold here after patent US6969760.

Assay [1] addresses IFN-γ receptor on 2C4 and mutant γ-1 cells (human HT1080-derived) (human) (UniProt P15260). The assay is described as follows: binding of 125I-labeled IFN-γ to 10^6 2C4 or γ-1 cells, 90 min at 0° C., non-specific binding subtracted.
For assay [2] the target is unchanged. The assay is described as follows: binding of 125I-labeled IFN-γ diluted to a lower specific activity, cells at 0° C.

In turn, “125I-labeled human IFN-γ (from UniProt P01579 24-166) (ligand)” showed a receptors per cell (specific binding at the highest IFN-γ concentration) (receptors per cell) in assay [1] of 6000. This substance also came in with a receptors per cell (saturation binding) (receptors per cell) in assay [2] of 10000.
